Test results from PMC9287727, “Structural snapshots of nitrosoglutathione binding and reactivity underlying S-nitrosylation of photosynthetic GAPDH” (Redox Biology, 2022).

Key:
[1] = biological target: the molecule itself; experiment: crystal structure; CrGAPA with 1 mM NADP+ or NAD+, hanging drop at 293 K, 1.2-1.6 M (NH4)2SO4, 0.1 M Tris-HCl pH 7.5-8.5; dimer in the asymmetric unit, tetramer by a crystallographic 2-fold axis
[2] = biological target: the molecule itself; experiment: crystal structure; oxidized NADP+-CrGapA, hanging drop at 293 K, 1.2-1.6 M (NH4)2SO4, 0.1 M Bicine pH 9.5; dimer in the asymmetric unit, tetramer by a crystallographic 2-fold axis

Row | Protein | stoichiometry N [1] | stoichiometry N [2]
1 | photosynthetic glyceraldehyde-3-phosphate dehydrogenase from Chlamydomonas reinhardtii (CrGAPA) (enzyme, UniProt P50362 35-374, looked up, Glyceraldehyde-3-phosphate dehydrogenase A, chloroplastic (GAPA), Chlamydomonas reinhardtii; mature protein; Homotetramer of A-type subunits; also called NADP-CrGAPA; NAD-CrGAPA) EKKIRVAINGFGRIGRNFLRCWHGRQNTLLDVVAINDSGGVKQASHLLKYDSTLGTFAADVKIVDDSHISVDGKQIKIVSSRDPLQLPWKEMNIDLVIEGTGVFIDKVGAGKHIQAGASKVLITAPAKDKDIPTFVVGVNEGDYKHEYPIISNASCTTNCLAPFVKVLEQKFGIVKGTMTTTHSYTGDQRLLDASHRDLRRARAAALNIVPTTTGAAKAVSLVLPSLKGKLNGIALRVPTPTVSVVDLVVQVEKKTFAEEVNAAFREAANGPMKGVLHVEDAPLVSIDFKCTDQSTSIDASLTMVMGDDMVKVVAWYDNEWGYSQRVVDLAEVTAKKWVA | 4 | –
2 | oxidized NADP+-CrGAPA (catalytic Cys149 oxidized to sulphinate/sulphonate) (enzyme, Chlamydomonas reinhardtii, UniProt P50362 35-374, looked up, Cys149 oxidized to sulphinate/sulphonate (-SO2-/-SO3-), Glyceraldehyde-3-phosphate dehydrogenase A, chloroplastic (GAPA), Chlamydomonas reinhardtii; mature protein; Same construct as m1; Cys149 found oxidized in crystals grown in 0.1 M Bicine pH 9.5 with NADP+) EKKIRVAINGFGRIGRNFLRCWHGRQNTLLDVVAINDSGGVKQASHLLKYDSTLGTFAADVKIVDDSHISVDGKQIKIVSSRDPLQLPWKEMNIDLVIEGTGVFIDKVGAGKHIQAGASKVLITAPAKDKDIPTFVVGVNEGDYKHEYPIISNASCTTNCLAPFVKVLEQKFGIVKGTMTTTHSYTGDQRLLDASHRDLRRARAAALNIVPTTTGAAKAVSLVLPSLKGKLNGIALRVPTPTVSVVDLVVQVEKKTFAEEVNAAFREAANGPMKGVLHVEDAPLVSIDFKCTDQSTSIDASLTMVMGDDMVKVVAWYDNEWGYSQRVVDLAEVTAKKWVA | – | 4
